Earlier results, collected in patent publication US9782344B2, “Stable glucagon peptide formulations” (ZP Opco, Inc., priority 2013, dated 2017).
Where two headings read alike, the source gives them in different places.

Substance: glucagon
- behaviour in aqueous solution (pH below 3 or above 9): readily dissolved
- behaviour in aqueous solution (pH between 4 and 8): precipitates readily
